From publication PMC11507936

Biological target: non-structural protein 3 (Nsp3) ubiquitin-like domain 1 (Ubl1), 1-111

“Nucleocapsid protein (N) (from UniProt P0DTC9)” was tested, and the “other: partition coefficient” value was “weaker; reference 12.6 ± 0.1”.
